Patent US20250289906A1, “MODULATION OF EXTRACELLULAR KINASE ACTIVITY AND FUNCTION FOR TREATMENT OF PAIN AND NEURODEGENERATIVE/NEUROIMMUNE DISEASE” (BOARD OF REGENTS, THE UNIVERSITY OF TEXAS SYSTEM, priority 2024, published 2025)

How the values were obtained:
mice [1] = test: Intrathecal administration, von Frey mechanical withdrawal thresholds; format: in vivo, mouse
Procedure: Behavior. Mechanical Withdrawal Thresholds were determined using von Frey Filament testing, following the method of (48). Animals were habituated to plexiglass chambers (11.4×7.6×7.6 cm) suspended on wire mesh racks. Baseline withdrawal thresholds were measured before experimental treatments, and subsequent testing was done at various timepoints indicated in each figure. Mechanical sensitivity was determined by applying von Frey filaments to the plantar aspect of the hind paws, and a response was indicated by flicking or withdrawal of the paw. For mice subjected to hindpaw incision surgeries, filaments were instead applied to the heel of the hindpaw near the site of injury but avoiding scar tissue.
(§1) Intrathecal injections were performed as previously described under isoflurane anesthesia (6). Drugs were administered in a 5 μL volume with a Hamilton syringe. Drugs were diluted in sterile saline. Heat denaturation was done by heating proteins at 70° C. for 30 mins. VLK, KD-VLK, DIA1, FAM69c and denatured controls were administered at concentrations of 0.1 mg/mL PAP was administered at 250 mU (12). APV was administered at 0.2 mg/mL.

neuronal cFos expression = test: cFos/NeuN staining of lumbar spinal cord dorsal horn after intrathecal administration; format: in vivo, mouse
Procedure: cFos and NeuN staining of free-floating tissue sections. Adult mice were euthanized by isoflurane inhalation. Lumbar spinal cords were dissected and drop fixed in 10% formalin for 2 hours, cryoprotected, embedded in OCT (Fisher #1437365) and frozen on dry ice. Tissues were cryostat sectioned at […]. Tissues were blocked in 0.1M Phosphate buffer with 10% Normal Goat Serum and 0.3% Triton-X and incubated in cFos and NeuN primary antibodies for 48 hours at 4° C. Secondary antibodies were incubated for 2 hours at room temperature. Sections were slide mounted and cover slipped with Prolong Gold Antifade. Images were taken on an Olympus Fluoview FV1000 confocal microscope at 20× magnification. cFos^+ cell counts were carried out using Imaris software.
as §1

mice [2] = test: Intrathecal administration, Mouse Grimace Scale scoring; format: in vivo
Procedure: Mouse grimace scoring was conducted using the Mouse Grimace Scale (MGS) described by (49). After acclimating to the suspended plexiglass chambers for an hour, mice were scored according to the MGS by blinded experimenters at baseline and post treatment time points which are indicated in each figure. The grimace scores were averaged by group at each time point and plotted respectively.
as §1

[3] = system: endogenous EphB2-NMDAR interaction; test: EphB2/GluN1 co-immunoprecipitation in untransfected cultured cortical neurons; format: cell-based; details: untransfected rat cortical neurons, 45 min
Procedure: Primary neuronal culture and transfection. Primary neuronal cultures were derived from embryonic day 17-18 (E17-18) rat cerebral cortex and maintained as described previously (4, 6). 8×10^6 neurons were plated for 10 cm dishes and 1×10^6 neurons were plated per well of 6 well dishes for biochemical assays. 2×10^5 neurons were plated on glass bottom dishes for live cell imaging experiments. As previously described, neuronal cultures were transfected using Lipofectamine 2000 (4, 6).
Western Blotting, Immunoprecipitation (IP) and Co-IP. HEK293T cells and cultured neurons were lysed in RIPA buffer to generate protein lysates. Cortices of postnatal day 35 (P35) transgenic mice Pkdcc^flox/flox CaMKII^Cre/+ and its WT littermate controls were also lysed using RIPA buffer and an equal amount of protein was used to perform IP. Pooled dorsal horns from Pkdcc^flox/flox Pirt^Cre/+ uninjured mice and their WTlittermate controls were lysed in RIPA. Following lysis, an additional Percoll gradient spin was carried out to remove myelin and unwanted cellular debris (37) and an equal amount of protein was used to perform IP. For conditioned ACSF IP, ACSF was filtered through a […] syringe filter (Millipore, cat #SLGV004SL) and incubated with antibody for 2 h at 4° C. followed by addition of Protein-G beads and incubation overnight at 4° C. […]

[4] = target: T1, EphB2 extracellular domain (Homo sapiens, UniProt P29323); test: In vitro cell-free kinase assay; format: biochemical; details: 100 ng kinase, 200 ng EphB2 ectodomain, ATP, 37° C., 30 min
T1 construct: purified recombinant protein fragment with EphB2 extracellular domain (EphB2 (200 ng), active; Millipore); purchased Millipore
T1 sequence (P29323 19-543 limits assumed): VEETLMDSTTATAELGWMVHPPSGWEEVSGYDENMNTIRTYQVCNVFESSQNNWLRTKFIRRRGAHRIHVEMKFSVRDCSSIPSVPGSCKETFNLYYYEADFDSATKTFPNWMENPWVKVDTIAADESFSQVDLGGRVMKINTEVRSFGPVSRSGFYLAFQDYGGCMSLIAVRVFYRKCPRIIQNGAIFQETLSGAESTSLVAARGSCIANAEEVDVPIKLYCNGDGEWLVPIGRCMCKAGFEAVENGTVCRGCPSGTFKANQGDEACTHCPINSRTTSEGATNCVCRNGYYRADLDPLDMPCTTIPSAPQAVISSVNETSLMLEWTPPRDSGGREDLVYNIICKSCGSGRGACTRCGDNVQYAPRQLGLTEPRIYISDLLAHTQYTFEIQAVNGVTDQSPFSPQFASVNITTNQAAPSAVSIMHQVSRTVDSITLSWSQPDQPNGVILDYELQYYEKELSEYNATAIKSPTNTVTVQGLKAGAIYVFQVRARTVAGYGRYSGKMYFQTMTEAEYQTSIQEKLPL
Procedure: In vitro Kinase assay. For the in vitro kinase assay purified recombinant protein fragment with EphB2 extracellular domain (EphB2 (200 ng), active; Millipore) and active VLK (100 ng), VLK-KD (100 ng), Fam69C (100 ng), DIA1 (100 ng) was used. The kinase reaction was started by adding 10 mM MnCl2, 10 mM MgAc, and 100 μM ATP in ACSF buffer. After 30 min of incubation at 37° C., phosphorylated proteins were separated by SDS-PAGE and analyzed by western blotting with anti-phosphotyrosine antibody (PY99) and EphB2. This protocol was also previously described (6)

EphB2-NMDAR interaction = target: T2, EphB2-NMDAR interaction (Homo sapiens, UniProt P29323); test: Proximity ligation assay (PLA) of EphB2-NMDAR in transfected HEK293T cells; format: cell-based; details: non-permeabilized HEK293T cells, 100 ng recombinant protein, 45 minutes
T2 sequence (P29323 19-1055): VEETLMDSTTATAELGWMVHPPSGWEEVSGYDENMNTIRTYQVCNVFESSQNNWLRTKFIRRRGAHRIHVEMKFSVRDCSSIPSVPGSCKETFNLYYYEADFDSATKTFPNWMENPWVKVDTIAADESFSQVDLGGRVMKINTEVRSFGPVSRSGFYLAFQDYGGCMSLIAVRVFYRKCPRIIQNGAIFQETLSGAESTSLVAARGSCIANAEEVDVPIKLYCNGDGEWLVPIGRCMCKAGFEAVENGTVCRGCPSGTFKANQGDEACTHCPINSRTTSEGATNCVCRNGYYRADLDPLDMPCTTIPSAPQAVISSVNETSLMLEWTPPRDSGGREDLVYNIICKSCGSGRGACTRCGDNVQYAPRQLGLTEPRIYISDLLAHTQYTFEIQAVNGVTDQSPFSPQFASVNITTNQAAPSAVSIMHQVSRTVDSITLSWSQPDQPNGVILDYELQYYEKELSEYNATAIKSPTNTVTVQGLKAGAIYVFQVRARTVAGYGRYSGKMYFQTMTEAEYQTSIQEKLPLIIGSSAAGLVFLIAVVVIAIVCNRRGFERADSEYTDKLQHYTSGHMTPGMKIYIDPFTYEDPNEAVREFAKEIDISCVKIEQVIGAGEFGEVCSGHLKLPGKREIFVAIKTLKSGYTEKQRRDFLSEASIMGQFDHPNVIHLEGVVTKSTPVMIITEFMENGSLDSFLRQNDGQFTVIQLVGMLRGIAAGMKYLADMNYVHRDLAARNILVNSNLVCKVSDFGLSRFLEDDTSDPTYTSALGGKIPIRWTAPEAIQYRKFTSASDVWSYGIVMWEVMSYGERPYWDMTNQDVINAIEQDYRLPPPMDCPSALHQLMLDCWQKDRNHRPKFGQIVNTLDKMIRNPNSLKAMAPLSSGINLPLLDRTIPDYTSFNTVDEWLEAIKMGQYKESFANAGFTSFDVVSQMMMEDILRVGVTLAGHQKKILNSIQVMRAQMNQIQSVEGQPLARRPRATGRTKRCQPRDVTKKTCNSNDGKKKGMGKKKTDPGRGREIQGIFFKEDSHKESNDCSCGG
Procedure: Recombinant protein—HEK293T cells were treated with 100 ng recombinant VLK, Fam69C, or DIA1. Synaptosomes were treated with 100 ng recombinant VLK. 1 mM ATP (Cat #A9187; Sigma) was applied as indicated. Recombinant PAP treatment was applied at 100 ng.
Proximity Ligation Assay (PLA). As previously described, PLA experiments on HEK293T cells, mouse brain, and human spinal cord synaptosomes were performed (4). Synaptosome PLA combined with vGlut1 immunostaining was also previously described (4).

[5] = agent given intrathecally before or together with VLK
[6] = intrathecal, 0.1 mg/mL in 5 μL, kinase given alone

## NC(CCCP(=O)(O)O)C(=O)O (stereo not shown) [AP5, reference compound]
Mice [1]; [5]
  VLK-induced mechanical sensitivity: blocked the VLK-induced pain phenotype
Neuronal cFos expression; VLK+AP5 intrathecal
  VLK-induced neuronal cFos expression: blocked
Mice [2]; [5]
  VLK-induced grimacing: blocked the VLK-induced pain phenotype

B1: VLK: active recombinant Vertebrate Lonesome Kinase (VLK/PKDCC), GST-tagged, purified from BL21 cells (protein)
chain: PRPGQSPEPSPAPGPGRRGGRGELARQIRARYEEVQRYSRGGPGPGAGRPERRRLMDLAPGGPGLPRPRPPWARPLSDGAPGWPPAPGPGSPGPGPRLGCAALRNVSGAQYMGSGYTKAVYRVRLPGGAAVALKAVDFSGHDLGSCVREFGVRRGCYRLAAHKLLKEMVLLERLRHPNVLQLYGYCYQDSEDIPDTLTTITELGAPVEMIQLLQTSWEDRFRICLSLGRLLHHLAHSPLGSVTLLDFRPRQFVLVDGELKVTDLDDARVEETPCAGSTDCILEFPARNFTLPCSAQGWCEGMNEKRNLYNAYRFFFTYLLPHSAPPSLRPLLDSIVNATGELAWGVDETLAQLEKVLHLYRSGQYLQNSTASSSTEYQCIPDSTIPQEDYRCWPSYHHGSCLLSVFNLAEAVDVCESHAQCRAFVVTNQTTWTGRQLVFFKTGWSQVVPDPNKTTYVKASG
[3]
  endogenous EphB2-NMDAR interaction (co-IP GluN1 with EphB2): induces the endogenous EphB2-NMDAR interaction
Mice [1]; [6]
  mechanical thresholds (von Frey): sharp drop in mechanical thresholds
[4]
  tyrosine phosphorylation of EphB2 ectodomain: unique capacity to phosphorylate the EphB2 ectodomain
EphB2-NMDAR interaction; listed as rVLK
  EphB2-NMDAR interaction on the cell surface (PLA): induces the EphB2-NMDAR interaction on the cell surface
EphB2-NMDAR interaction; listed as recombinant VLK
  EphB2-NMDAR interaction on the cell surface (PLA): induced the EphB2-NMDAR interaction on the cell surface
Neuronal cFos expression; intrathecal VLK alone
  neuronal cFos expression (cFos+ cells): significant increase in neuronal cFos expression
Mice [2]; [6]
  grimacing (grimace scores, affective pain): increased grimacing
